According to publication PMC12412103, “An Amyloidogenic Fragment of the Spike Protein from SARS-CoV‑2 Virus Stimulates the Aggregation and Toxicity of Parkinson’s Disease Protein Alpha-Synuclein” (ACS Chemical Neuroscience, 2025):

Molecular target: mS194 (Spike 194–203 monomer) (Severe acute respiratory syndrome coronavirus 2, UniProt P0DTC2)

Row | Substance | effect of fAβ on mS194 aggregation | increase of ThT fluorescence intensity of mS194 versus mS194 alone [fold]
1 | fAβ25–35 (GSNKGAIIGLM; Amyloid-beta protein 42 fibrillar; UniProt P05067 696-706, looked up, fragment) | acceleration of mS194 aggregation | 4
2 | fAβ1–42 | acceleration of mS194 aggregation | –
